Measured values taken from patent US20220112244A1 (DOMPE FARMACEUTICI S P A, published 2022).
No end group written: not given here.

B1: peptide of SEQ ID NO: 4 (peptide)
peptide: Ac-VMVTIPADLWDWINK-NH2
B2: peptide of SEQ ID NO: 40 (peptide)
peptide: Ac-VMVTIPADLYEWIEEVPGDG-NH2
B3: peptide of SEQ ID NO: 10 (peptide)
peptide: Ac-IHVTIPADLWDWINR-NH2
B4: peptide of SEQ ID NO: 7 (peptide)
peptide: Ac-IHVTIPADLYEWINK-NH2
modifications: not fully specified
B5: peptide of SEQ ID NO: 39 (peptide)
peptide: Ac-VPGDGVMVTIPADLYEWIEE-NH2
B6: peptide of SEQ ID NO: 14 (peptide)
peptide: Ac-IHVTIPADLWDWVRR-NH2
B7: peptide of SEQ ID NO: 37 (peptide)
peptide: Ac-VMVTIPADLYEWIEEVPGAGVPGAG-NH2
B8: peptide of SEQ ID NO: 8 (peptide)
peptide: Ac-IHVTIPADLWDWVNK-NH2
B9: peptide of SEQ ID NO: 12 (peptide)
peptide: Ac-IHVTIPADLWDWINE-NH2
B10: peptide of SEQ ID NO: 146 (peptide)
peptide: Ac-VHFTIPQDWWEWVRR-NH2
B11: peptide of SEQ ID NO: 153 (peptide)
peptide: Ac-VHFQIPQDLYNFFRR-NH2
B12: peptide of SEQ ID NO: 158 (peptide)
peptide: Ac-AHVTIPADLWDWINK-NH2
B13: peptide of SEQ ID NO: 141 (peptide)
peptide: Ac-VHFQFPQDWWEWFRR-NH2
B14: peptide of SEQ ID NO: 155 (peptide)
peptide: Ac-VRFQFGQEWYNFFRR-NH2
B15: peptide of SEQ ID NO: 156 (peptide)
peptide: Ac-VPGAGVPGAGIHVTI-NH2
B16: peptide of SEQ ID NO: 6 (peptide)
peptide: Ac-IHVTIPADLYDWINK-NH2
B17: peptide of SEQ ID NO: 163 (peptide)
peptide: Ac-IKVTIPADLWDWINK-NH2
B18: peptide of SEQ ID NO: 159 (peptide)
peptide: Ac-GHVTIPADLWDWINK-NH2
B19: peptide of SEQ ID NO: 152 (peptide)
peptide: Ac-VHFTIPADLYNFVRR-NH2
B20: peptide of SEQ ID NO: 147 (peptide)
peptide: Ac-VHFTFPQDLYNWVRR-NH2
B21: peptide of SEQ ID NO: 124 (peptide)
peptide: Ac-VHFTFPQDLWEWVRR-NH2
B22: peptide of SEQ ID NO: 160 (peptide)
peptide: Ac-LHVTIPADLWDWINK-NH2
B23: peptide of SEQ ID NO: 150 (peptide)
peptide: Ac-VHFQFPQDLWEWVRR-NH2
B24: peptide of SEQ ID NO: 130 (peptide)
peptide: Ac-VHFQFPADLWEWVRR-NH2
B25: peptide of SEQ ID NO: 143 (peptide)
peptide: Ac-VHVQIPADFWEWFRR-NH2
B26: peptide of SEQ ID NO: 135 (peptide)
peptide: Ac-VHFQFPADLWEWFRR-NH2
B27: BIO-4 (peptide)
peptide: {capric acid}-IMVTIPADLYEWIEE
B28: peptide of SEQ ID NO: 151 (peptide)
peptide: Ac-VHFTIPQDLYNWRR-NH2
B29: peptide of SEQ ID NO: 148 (peptide)
peptide: Ac-VHFTFPQDLYNFVRR-NH2
B30: peptide of SEQ ID NO: 129 (peptide)
peptide: Ac-VHFTFPQDLWEWFRR-NH2
B31: peptide of SEQ ID NO: 140 (peptide)
peptide: Ac-VHFQFPQDLWEFVRR-NH2
B32: peptide of SEQ ID NO: 161 (peptide)
peptide: Ac-PHVTIPADLWDWINK-NH2
B33: peptide of SEQ ID NO: 133 (peptide)
peptide: Ac-VHFQFPADLWNWVRR-NH2
B34: peptide of SEQ ID NO: 162 (peptide)
peptide: Ac-IRVTIPADLWDWINK-NH2
B35: peptide of SEQ ID NO: 126 (peptide)
peptide: Ac-VHFTIPQDLYEWVRR-NH2
B36: peptide of SEQ ID NO: 121 (peptide)
peptide: Ac-VHVTIPADLWEWFRR-NH2
B37: peptide of SEQ ID NO: 142 (peptide)
peptide: Ac-VHFTIPADFWEWFRR-NH2
B38: peptide of SEQ ID NO: 145 (peptide)
peptide: Ac-VHVTIPQDFWEWFRR-NH2
B39: peptide of SEQ ID NO: 137 (peptide)
peptide: Ac-VHFQIPQDWWEWVRR-NH2
B40: peptide of SEQ ID NO: 119 (peptide)
peptide: Ac-VHVTIPADLWNWVRR-NH2
B41: BIO-5 (peptide)
peptide: {ascorbic acid}-IMVTIPADLYEWIEE
B42: BIO-2 (peptide)
peptide: IMVTIPADLYEWIEEQ-{N‑acetylglucosamine}
B43: peptide of SEQ ID NO: 154 (peptide)
peptide: Ac-VHFQFPQEWYNWFRR-NH2
B44: peptide of SEQ ID NO: 120 (peptide)
peptide: Ac-VHVTIPADLWEFVRR-NH2
B45: peptide of SEQ ID NO: 123 (peptide)
peptide: Ac-VHVTIPAEWWEWVRR-NH2
B46: BIO-1 (peptide)
peptide: {N‑acetylmuramic acid}-IMVTIPADLYEWIEE
B47: peptide of SEQ ID NO: 127 (peptide)
peptide: Ac-VHFTFPQDLWNWVRR-NH2
B48: peptide of SEQ ID NO: 139 (peptide)
peptide: Ac-VHFQFPQDWWNWVRR-NH2
B49: peptide of SEQ ID NO: 125 (peptide)
peptide: Ac-VHFTFPQDFWEWVRR-NH2
B50: peptide of SEQ ID NO: 144 (peptide)
peptide: Ac-VHVTFPADLWEWFRR-NH2
B51: BIO-3 (peptide)
peptide: {N‑acetylglucosamine-N‑acetylmuramic acid}-IMVTIPADLYEWIEE
B52: peptide of SEQ ID NO: 157 (peptide)
peptide: Ac-VPGAGVPGAGIHVTIPA-NH2
B53: peptide of SEQ ID NO: 128 (peptide)
peptide: Ac-VHFTFPQDLWEFVRR-NH2
B54: peptide of SEQ ID NO: 9 (peptide)
peptide: Ac-IHVTIPADLWDWIRK-NH2
B55: peptide of SEQ ID NO: 134 (peptide)
peptide: Ac-VHFQFPADLWEFVRR-NH2
B56: peptide of SEQ ID NO: 122 (peptide)
peptide: Ac-VHVYIPAELWEWVRR-NH2
B57: peptide of SEQ ID NO: 149 (peptide)
peptide: Ac-VHVTIPADLYNFFRR-NH2

Molecular target: T1, IL-17A (agonist in the IL-17RA/IL17RC dimerization assay) (UniProt Q16552 24-155)
Test: cell-based or functional assay

T1 sequence (Q16552 24-155 limits assumed): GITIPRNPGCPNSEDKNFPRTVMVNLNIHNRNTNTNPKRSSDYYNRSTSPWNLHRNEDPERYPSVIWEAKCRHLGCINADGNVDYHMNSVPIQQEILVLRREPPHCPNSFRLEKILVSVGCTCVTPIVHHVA

IC50, % inhibition of IL-17A-induced IL-17RA/IL17RC dimerization (PathHunter cytokine receptor assay) [µM] | Binder
0.203 | B1
0.24 | B2
0.263 | B3
0.103 | B4
0.159 | B5
0.38 | B6
0.188 | B7
0.189 | B8
0.118 | B9

Molecular target: T1, IL-17A (agonist in the IL-17RA/IL17RC …)
Test: cell-based or functional assay
Remark: another data set of the same source

IC50 in IL-17RA/IL7RC dimerization assay [µM] | Binder
< 0.5 | B10
< 0.5 | B11
< 10 | B12
< 0.5 | B13
< 0.5 | B14
< 0.5 | B15
< 0.4 | B16
< 10 | B17
< 10 | B18
< 0.5 | B19
< 0.5 | B20
< 0.5 | B21
< 10 | B22
< 0.5 | B23
< 0.1 | B1
< 0.5 | B24
< 0.5 | B25
< 0.5 | B26
< 1 | B27

IC50 in IL-17RA/IL7RC dimerization assay [µM] | Binder
< 0.5 | B28
< 0.5 | B29
< 0.5 | B30
< 0.5 | B31
< 0.2 | B2
< 10 | B32
< 0.5 | B33
< 0.4 | B3
< 10 | B34
< 0.5 | B35
< 0.5 | B36
< 0.2 | B5
< 0.5 | B37
< 0.5 | B38
< 0.4 | B6
< 0.5 | B39
< 0.5 | B40
< 1 | B41
< 1 | B42

IC50 in IL-17RA/IL7RC dimerization assay [µM] | Binder
< 0.5 | B43
< 0.5 | B44
< 0.5 | B45
< 1 | B46
< 0.2 | B7
< 0.5 | B47
< 0.5 | B48
< 0.2 | B8
< 0.5 | B49
< 0.2 | B9
< 0.5 | B50
< 1 | B51
< 0.5 | B52
< 0.5 | B53
< 0.3 | B54
< 0.5 | B55
< 0.5 | B56
< 0.5 | B57
